Starred links: 1 amine or outer side, 2 acyl side, 3 side chain; linkers in the order of their positions; H or OH if unused. Positions of bridges follow the written chain, without caps; N, C: chain ends. Non-standard residues stand in square brackets, D forms with d. Groups on a side chain read outwards from the residue. *: point of attachment. PEG12 = NCCOCCOCCOCCOCCOCCOCCOCCOCCOCCOCCOCCOCCC(=O)O; Phe(4-tBu) = CC(C)(C)c1ccc(C[C@H](N)C(=O)O)cc1; Phe(3,4-F2) = N[C@@H](Cc1ccc(F)c(F)c1)C(=O)O; Dip = N[C@H](C(=O)O)C(c1ccccc1)c1ccccc1; γGlu = O=C(O)[C@H](CCC(=O)[*:2])N[*:1]; 2Nal = N[C@@H](Cc1ccc2ccccc2c1)C(=O)O; AEF = NCCOc1ccc(C[C@H](N)C(=O)O)cc1; Palmitoyl = CCCCCCCCCCCCCCCC(=O)*; β3hF = N[C@H](CC(=O)O)Cc1ccccc1; Isovaleryl = CC(C)CC(=O)*; Npc = nipecotic acid; βAla = NCCC(=O)O
T1: human ferroportin (SLC40A1) fused with GFP, stably expressed in HEK293 cells (human, UniProt Q9NP59 1-571)
T1 sequence (looked up): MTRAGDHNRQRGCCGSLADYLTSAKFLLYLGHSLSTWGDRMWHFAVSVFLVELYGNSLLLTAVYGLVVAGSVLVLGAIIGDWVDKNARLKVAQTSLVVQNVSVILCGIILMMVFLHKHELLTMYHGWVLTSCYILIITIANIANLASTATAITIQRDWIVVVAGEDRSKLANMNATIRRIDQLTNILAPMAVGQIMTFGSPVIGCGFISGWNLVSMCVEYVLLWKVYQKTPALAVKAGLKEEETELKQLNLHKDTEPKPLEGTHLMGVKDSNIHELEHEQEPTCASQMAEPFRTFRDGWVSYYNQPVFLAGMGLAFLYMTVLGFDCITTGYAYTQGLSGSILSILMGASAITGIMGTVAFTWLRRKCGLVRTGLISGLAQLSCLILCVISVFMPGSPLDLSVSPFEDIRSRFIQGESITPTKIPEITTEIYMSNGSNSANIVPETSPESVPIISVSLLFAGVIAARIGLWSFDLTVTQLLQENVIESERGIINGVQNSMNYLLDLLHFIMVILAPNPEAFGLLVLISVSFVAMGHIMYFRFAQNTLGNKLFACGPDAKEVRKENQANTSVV

T2: human ferroportin (SLC40A1) fused in frame with the GFP protein, stably expressed in HEK293 cells (human, UniProt Q9NP59 1-571)
T2 sequence (looked up): T1 sequence (looked up)

B1: Compd ID 122 (peptide)
peptide: DTHXPCIKXKKC
modifications: Isovaleric acid-DTH-[Dpa]-PCI-[(D)Lys]-[b-hPhe]-[Lys(Peg11-Palm)]-[(D)Lys]-C-NH2
B2: Compd ID 120 (peptide)
peptide: DTHXPCIKFKKC
modifications: Isovaleric acid-DTH-[Phe(4-COOH)-PCI-[(D)Lys]-F-[Lys(Peg11-Palm)]-[(D)Lys]-C-NH2
B3: Compd ID 142 (peptide)
peptide: DTHXPXIKFKXX
modifications: Isovaleric acid-DTH-[Dpa]-P-[Hcy]-I-[(D)Lys]-F-[Lys(Peg11-Palm)]-[Dap]-[Hcy]-NH2
B4: Compd ID 134 (peptide)
peptide: DTHXPCIKFKKX
modifications: Isovaleric acid-DTH-[Dpa]-PCI-[(D)Lys]-F-[Lys(Peg11-Palm)]-[(D)Lys]-[N-Me-Cys]-NH2
B5: Compd ID 202 (peptide)
peptide: Isovaleryl-DTHFPCIK([γGlu-Palmitoyl])FEPRSKC-NH2
modifications: disulfide 6-15
SMILES: CCCCCCCCCCCCCCCC(=O)N[C@@H](CCC(=O)NCCCC[C@@H]1NC(=O)[C@H]([C@@H](C)CC)NC(=O)[C@@H](NC(=O)[C@@H]2CCCN2C(=O)[C@H](Cc2ccccc2)NC(=O)[C@H](Cc2c[nH]cn2)NC(=O)[C@@H](NC(=O)[C@H](CC(=O)O)NC(=O)CC(C)C)[C@@H](C)O)CSSC[C@@H](C(N)=O)NC(=O)[C@H](CCCCN)NC(=O)[C@H](CO)NC(=O)[C@H](CCCNC(=N)N)NC(=O)[C@@H]2CCCN2C(=O)[C@H](CCC(=O)O)NC(=O)[C@H](Cc2ccccc2)NC1=O)C(=O)O
B6: Compd ID 203 (peptide)
peptide: Isovaleryl-DTHFPCIK([γGlu-Palmitoyl])FEPRSC-NH2
modifications: disulfide 6-14
SMILES: CCCCCCCCCCCCCCCC(=O)N[C@@H](CCC(=O)NCCCC[C@@H]1NC(=O)[C@H]([C@@H](C)CC)NC(=O)[C@@H](NC(=O)[C@@H]2CCCN2C(=O)[C@H](Cc2ccccc2)NC(=O)[C@H](Cc2c[nH]cn2)NC(=O)[C@@H](NC(=O)[C@H](CC(=O)O)NC(=O)CC(C)C)[C@@H](C)O)CSSC[C@@H](C(N)=O)NC(=O)[C@H](CO)NC(=O)[C@H](CCCNC(=N)N)NC(=O)[C@@H]2CCCN2C(=O)[C@H](CCC(=O)O)NC(=O)[C@H](Cc2ccccc2)NC1=O)C(=O)O
B7: Compd ID 205 (peptide)
peptide: Isovaleryl-DTHFPCIK([γGlu-Palmitoyl])FEPC-NH2
modifications: disulfide 6-12
SMILES: CCCCCCCCCCCCCCCC(=O)N[C@@H](CCC(=O)NCCCC[C@@H]1NC(=O)[C@H]([C@@H](C)CC)NC(=O)[C@@H](NC(=O)[C@@H]2CCCN2C(=O)[C@H](Cc2ccccc2)NC(=O)[C@H](Cc2c[nH]cn2)NC(=O)[C@@H](NC(=O)[C@H](CC(=O)O)NC(=O)CC(C)C)[C@@H](C)O)CSSC[C@@H](C(N)=O)NC(=O)[C@@H]2CCCN2C(=O)[C@H](CCC(=O)O)NC(=O)[C@H](Cc2ccccc2)NC1=O)C(=O)O
B8: Compd ID 201 (peptide)
peptide: Isovaleryl-DTHFPCIK([γGlu-Palmitoyl])FEPRSKGC-NH2
modifications: disulfide 6-16
SMILES: CCCCCCCCCCCCCCCC(=O)N[C@@H](CCC(=O)NCCCC[C@@H]1NC(=O)[C@H]([C@@H](C)CC)NC(=O)[C@@H](NC(=O)[C@@H]2CCCN2C(=O)[C@H](Cc2ccccc2)NC(=O)[C@H](Cc2c[nH]cn2)NC(=O)[C@@H](NC(=O)[C@H](CC(=O)O)NC(=O)CC(C)C)[C@@H](C)O)CSSC[C@@H](C(N)=O)NC(=O)CNC(=O)[C@H](CCCCN)NC(=O)[C@H](CO)NC(=O)[C@H](CCCNC(=N)N)NC(=O)[C@@H]2CCCN2C(=O)[C@H](CCC(=O)O)NC(=O)[C@H](Cc2ccccc2)NC1=O)C(=O)O
B9: Compd ID 204 (peptide)
peptide: Isovaleryl-DTHFPCIK([γGlu-Palmitoyl])FEPRC-NH2
modifications: disulfide 6-13
SMILES: CCCCCCCCCCCCCCCC(=O)N[C@@H](CCC(=O)NCCCC[C@@H]1NC(=O)[C@H]([C@@H](C)CC)NC(=O)[C@@H](NC(=O)[C@@H]2CCCN2C(=O)[C@H](Cc2ccccc2)NC(=O)[C@H](Cc2c[nH]cn2)NC(=O)[C@@H](NC(=O)[C@H](CC(=O)O)NC(=O)CC(C)C)[C@@H](C)O)CSSC[C@@H](C(N)=O)NC(=O)[C@H](CCCNC(=N)N)NC(=O)[C@@H]2CCCN2C(=O)[C@H](CCC(=O)O)NC(=O)[C@H](Cc2ccccc2)NC1=O)C(=O)O

These binders were tested against T1, human ferroportin (SLC40A1) fused with … (assay: cell-based or functional assay).

| Binder | FPN IC50 [nM] |
| --- | --- |
| Isovaleryl-DTHF[Npc]CI[dK]FK([PEG12-Palmitoyl])[dK]C-NH2 (disulfide 6-12 (inferred)) [Compd ID 118] | 6 |
| DTHXPCIKFKKC (Isovaleric acid-DTH-[b-hPhe]-PCI-[(D)Lys]-F-[Lys(Peg11-Palm)]-[(D)Lys]-C-NH2) [Compd ID 121] | 9 |
| B1 | 5 |
| Isovaleryl-DIH[Dip]PCI[dK]FK([PEG12-Palmitoyl])[dK]C-NH2 (disulfide 6-12 (inferred)) [Compd ID 130] | 169 |
| DTHXPCIKFKKX (Isovaleric acid-DTH-[Dpa]-PCI-[(D)Lys]-F-[Lys(Peg11-Palm)]-[(D)Lys]-Pen-NH2) [Compd ID 132] | 4 |
| Isovaleryl-DTH[Dip][Npc]CI[dK][AEF]K([PEG12-Palmitoyl])KC-NH2 (disulfide 6-12 (inferred)) [Compd ID 111] | > 3000 |
| Isovaleryl-DTH[Dip][Npc]CI[dK][2Nal]K([PEG12-Palmitoyl])KC-NH2 (disulfide 6-12 (inferred)) [Compd ID 112] | 4 |
| Isovaleryl-DTH[Dip][Npc]CI[dK][Phe(3,4-F2)]K([PEG12-Palmitoyl])KC-NH2 (disulfide 6-12 (inferred)) [Compd ID 127] | 3 |
| DTHFPCIKFKC (Isovaleric acid-DTHFPCIKF-Lys[PEG11-Palm]-C-NH2) [Compd ID 8] | 6 |
| DTHFPXIKFKKC (Isovaleric acid-DTHFP-[a-MeCys]-I-[(D)Lys]-F-[Lys(Peg11-Palm)]-K-C-NH2) [Compd ID 116] | 11 |
| DTHFPCIKFKKX (Isovaleric acid-DTH-F-PCI-[(D)Lys]-F-[Lys(Peg11-Palm)]-K-[a-MeCysl-NH2) [Compd ID 114] | 3 |
| DTHXPCIKFKKC (Isovaleric acid-DTH-[Dpa]-PCI-[(D)Lys]-F-[Lys(Peg11-Palm)]-[(D)Lys]-C-NH2) [Compd ID 139] | 19.5 |
| Isovaleryl-DTH[Dip][Npc]CI[dK][Phe(4-tBu)]K([PEG12-Palmitoyl])KC-NH2 (disulfide 6-12 (inferred)) [Compd ID 110] | 3 |
| DTHXPCIKFKXX (Isovaleric acid-DTH-[Dpa]-PCI-[(D)Lys]-F-[Lys(Peg11-Palm)]-[Dap]-[Pen]-NH2) [Compd ID 140] | 51 |
| DTHXPCIKFKKX (Isovaleric acid-DTH-[Dpa]-PCI-[(D)Lys]-F-[Lys(Peg11-Palm)]-K-[N-Me-Cys]-NH2) [Compd ID 133] | 13.5 |
| Isovaleryl-DTHFPCI[dK]FK([PEG12-Palmitoyl])CK-NH2 (disulfide 6-11 (inferred)) [Compd ID 144] | 32 |

| Binder | FPN IC50 [nM] |
| --- | --- |
| DTHXPCIKFKXC (Isovaleric acid-DTH-[Dpa]-PCI-[(D)Lys]-F-[Lys(Peg11-Palm)]-[Orn]-C-NH2) [Compd ID 136] | 27 |
| DTHXPCIKFKKC (Isovaleric acid-DTH-[a-MePhe]-PCI-[(D)Lys]-F-[Lys(Peg11-Palm)]-[(D)Lys]-C-NH2) [Compd ID 128] | 204 |
| B2 | > 1000 |
| DTHXPCIKFKC (Isovaleric acid-DTH-[Dpa]-PCI-[(D)Lys]-F-[Lys(Peg11-Palm)]-C-NH2) [Compd ID 135] | 22 |
| DTHXPCIKFKXC (Isovaleric acid-DTH-[Dpa]-PCI-[(D)Lys]-F-[Lys(Peg11-Palm)]-[b-hLys]-C-NH2) [Compd ID 138] | 20.5 |
| B3 | 12 |
| DTHFPCIKFKPCK (Isovaleric acid-DTHFPCIKF-Lys[PEG11-Palm]-PCK-NH2) [Compd ID 9] | 15 |
| Isovaleryl-DTH[Dip][Npc]CI[dK]FK([PEG12-Palmitoyl])[dK]C-NH2 (disulfide 6-12 (inferred)) [Compd ID 117] | 2 |
| Isovaleryl-DTH[Dip]PCI[βAla][β3hF]K([PEG12-Palmitoyl])[dK]C-NH2 (disulfide 6-12 (inferred)) [Compd ID 145] | 18 |
| DTHXPXIKFKXC (Isovaleric acid-DTH-[Dpa]-P-[Hcy]-I-[(D)Lys]-F-[Lys(Peg11-Palm)]-[Dap]-C-NH2) [Compd ID 141] | 26.5 |
| DTHXPCIKFKXC (Isovaleric acid-DTH-[Dpa]-PCI-[(D)Lys]-F-[Lys(Peg11-Palm)]-[Dab]-C-NH2) [Compd ID 137] | 23 |
| DTHFPXIKFKKX (Isovaleric acid-DTHFP-[a-MeCys]-I-[(D)Lys]-F-[Lys(Peg11-Palm)]-K-[a-MeCys]-NH2) [Compd ID 115] | 4 |
| B4 | 22.5 |
| DTHXPCIKFKXX (Isovaleric acid-DTH-[Dpa]-PCI-[(D)Lys]-F-[Lys(Peg11-Palm)]-[Dap]-[Hcy]-NH2) [Compd ID 143] | 18 |
| DTHXPCIKXKKC (Isovaleric acid-DTH-[Dpa]-PCI-[(D)Lys]-[Dpa]-[Lys(Peg11-Palm)]-[(D)Lys]-C-NH2) [Compd ID 131] | 14 |

What follows are binders tested against T2, human ferroportin (SLC40A1) fused in … (assay: cell-based or functional assay).

| Binder | FPN IC50 [nM] |
| --- | --- |
| B5 | 11 |
| B6 | 15 |
| B7 | 64 |
| B8 | 9 |
| B9 | 14 |

— patent US20200361992A1 (PROTAGONIST THERAPEUTICS, published 2020)
